B1: CD73 (ecto‐5′‐nucleotidase): N311Q (protein)
parent chain: MCPRAARAPATLLLALGAVLWPAAGAWELTILHTNDVHSRLEQTSEDSSKCVNASRCMGGVARLFTKVQQIRRAEPNVLLLDAGDQYQGTIWFTVYKGAEVAHFMNALRYDAMALGNHEFDNGVEGLIEPLLKEAKFPILSANIKAKGPLASQISGLYLPYKVLPVGDEVVGIVGYTSKETPFLSNPGTNLVFEDEITALQPEVDKLKTLNVNKIIALGHSGFEMDKLIAQKVRGVDVVVGGHSNTFLYTGNPPSKEVPAGKYPFIVTSDDGRKVPVVQAYAFGKYLGYLKIEFDERGNVISSHGNPILLNSSIPEDPSIKADINKWRIKLDNYSTQELGKTIVYLDGSSQSCRFRECNMGNLICDAMINNNLRHTDEMFWNHVSMCILNGGGIRSPIDERNNGTITWENLAAVLPFGGTFDLVQLKGSTLKKAFEHSVHRYGQSTGEFLQVGGIHVVYDLSRKPGDRVVKLDVLCTKCRVPSYDPLKMDEVYKVILPNFLANGGDGFQMIKDELLRHDSGDQDINVVSTYISKMKVIYPAVEGRIKFSTGSHCHGSFSLIFLSLWAVIFVLYQ
B2: CD73 (ecto‐5′‐nucleotidase): N333Q (protein)
parent chain: B1 parent chain

Assay: 5′-nucleotidase kit, transfected PLC/PRF/5 lysates
Settings: glycan lost; control: wild type

Row | Protein | enzymatic_activity, percent_of_wt
1 | B1 | decreases
2 | B2 | decreases
